Test results published in PMC12047441.

Biological target: T1, His-tagged A. vinelandii NifEN heterologously expressed in E. coli, O- and L-cluster containing (AvNifEN^Ec-L) (A. vinelandii) (UniProt P08293)
T1 sequence 1: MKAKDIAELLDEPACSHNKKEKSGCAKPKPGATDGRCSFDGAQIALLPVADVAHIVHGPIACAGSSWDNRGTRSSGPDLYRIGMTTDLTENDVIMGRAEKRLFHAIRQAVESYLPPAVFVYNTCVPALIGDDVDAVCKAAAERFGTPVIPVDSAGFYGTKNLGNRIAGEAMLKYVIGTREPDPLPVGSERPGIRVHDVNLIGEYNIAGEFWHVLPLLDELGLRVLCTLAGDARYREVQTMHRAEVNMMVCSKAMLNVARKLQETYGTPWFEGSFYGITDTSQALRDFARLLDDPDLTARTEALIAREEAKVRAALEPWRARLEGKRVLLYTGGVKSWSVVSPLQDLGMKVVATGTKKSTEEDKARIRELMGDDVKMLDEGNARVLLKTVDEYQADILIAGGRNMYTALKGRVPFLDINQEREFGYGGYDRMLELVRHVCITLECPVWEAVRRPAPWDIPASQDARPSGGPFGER
T1 sequence 2: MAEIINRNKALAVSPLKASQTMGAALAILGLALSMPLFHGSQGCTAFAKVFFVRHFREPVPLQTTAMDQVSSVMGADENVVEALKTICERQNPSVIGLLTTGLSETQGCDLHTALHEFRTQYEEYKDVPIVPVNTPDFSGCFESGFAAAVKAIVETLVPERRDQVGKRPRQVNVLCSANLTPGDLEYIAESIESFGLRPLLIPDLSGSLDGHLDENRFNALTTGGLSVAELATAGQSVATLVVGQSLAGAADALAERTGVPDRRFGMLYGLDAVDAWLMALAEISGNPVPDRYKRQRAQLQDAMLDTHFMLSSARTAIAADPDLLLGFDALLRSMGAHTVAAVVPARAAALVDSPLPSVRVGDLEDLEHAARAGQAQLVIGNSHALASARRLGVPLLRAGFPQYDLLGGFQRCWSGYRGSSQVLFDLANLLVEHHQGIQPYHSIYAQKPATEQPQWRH

B1: M. acetivorans NifB (MaNifB), radical SAM enzyme, L-cluster bound (enzyme)
chain: MPEENQPIKEKNNGPILGEELLRKISEHPCYDKNAQHKYGRIHLAVAPACNIQCNFCVREFDCVNESRPGVTSKVLTPEEALEKTKQILAEYPFIKVVAIAGPGDPLANDETFETFELIRNEFPEITLCMSTNGLMLPEKLPEILRTGVSTLTVTVNAIDPEIQAKIVDHIFYHGKVYKGVEAAKIQIKNQLDGIKAAIDAGIVVKVNTVLIPGINDKHIIEIAKKLNELGVYIMNVMPLINQGAFADLEPPTPEERKAVQEACEPYVMQMRHCRQCRADAYGLLAQDMSQMSEERRKVIKIQTKEDMEKARAVLEKNGKKEA
B1 gave a L-cluster occupancy of AvNifEN^Ec-L calculated from the Fe content, after in vivo transfer of the L-cluster from NifB to NifEN in E. coli of 42.9% and a L-cluster occupancy of AvNifEN^Ec-L relative to native AvNifEN^L (intensity of the g = 1.94 EPR feature), after in vivo transfer of the L-cluster from NifB to NifEN in E. coli of 36%.
